T1: PAH2 Left TAL-PBx (synthetic construct)
T1 chain: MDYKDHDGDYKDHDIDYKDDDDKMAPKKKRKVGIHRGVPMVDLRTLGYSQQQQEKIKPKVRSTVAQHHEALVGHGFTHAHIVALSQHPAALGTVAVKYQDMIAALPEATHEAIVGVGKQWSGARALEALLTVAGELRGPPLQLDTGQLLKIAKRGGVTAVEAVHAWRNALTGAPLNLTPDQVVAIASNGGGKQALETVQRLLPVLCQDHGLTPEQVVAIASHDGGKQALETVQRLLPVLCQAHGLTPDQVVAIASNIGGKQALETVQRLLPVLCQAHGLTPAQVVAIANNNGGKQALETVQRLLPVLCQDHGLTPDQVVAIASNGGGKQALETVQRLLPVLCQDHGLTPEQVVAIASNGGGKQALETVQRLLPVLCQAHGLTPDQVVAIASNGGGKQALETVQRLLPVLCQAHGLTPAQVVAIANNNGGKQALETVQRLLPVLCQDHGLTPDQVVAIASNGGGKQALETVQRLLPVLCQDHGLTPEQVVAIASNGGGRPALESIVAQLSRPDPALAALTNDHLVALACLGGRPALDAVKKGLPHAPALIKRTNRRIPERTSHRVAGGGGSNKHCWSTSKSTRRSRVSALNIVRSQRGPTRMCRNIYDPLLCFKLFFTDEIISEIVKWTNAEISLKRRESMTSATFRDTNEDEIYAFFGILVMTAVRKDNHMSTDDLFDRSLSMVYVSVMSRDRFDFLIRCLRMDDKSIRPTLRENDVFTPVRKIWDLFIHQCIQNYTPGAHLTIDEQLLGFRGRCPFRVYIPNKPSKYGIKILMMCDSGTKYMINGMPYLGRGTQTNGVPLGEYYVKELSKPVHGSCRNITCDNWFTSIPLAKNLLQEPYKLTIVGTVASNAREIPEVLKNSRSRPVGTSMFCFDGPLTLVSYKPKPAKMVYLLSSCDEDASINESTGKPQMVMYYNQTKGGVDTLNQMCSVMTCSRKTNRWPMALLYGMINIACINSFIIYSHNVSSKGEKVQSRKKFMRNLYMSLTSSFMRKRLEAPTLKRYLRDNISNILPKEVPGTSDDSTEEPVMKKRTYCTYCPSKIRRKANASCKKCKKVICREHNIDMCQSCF

T2: PAH2 Right TAL-PBx (synthetic construct)
T2 chain: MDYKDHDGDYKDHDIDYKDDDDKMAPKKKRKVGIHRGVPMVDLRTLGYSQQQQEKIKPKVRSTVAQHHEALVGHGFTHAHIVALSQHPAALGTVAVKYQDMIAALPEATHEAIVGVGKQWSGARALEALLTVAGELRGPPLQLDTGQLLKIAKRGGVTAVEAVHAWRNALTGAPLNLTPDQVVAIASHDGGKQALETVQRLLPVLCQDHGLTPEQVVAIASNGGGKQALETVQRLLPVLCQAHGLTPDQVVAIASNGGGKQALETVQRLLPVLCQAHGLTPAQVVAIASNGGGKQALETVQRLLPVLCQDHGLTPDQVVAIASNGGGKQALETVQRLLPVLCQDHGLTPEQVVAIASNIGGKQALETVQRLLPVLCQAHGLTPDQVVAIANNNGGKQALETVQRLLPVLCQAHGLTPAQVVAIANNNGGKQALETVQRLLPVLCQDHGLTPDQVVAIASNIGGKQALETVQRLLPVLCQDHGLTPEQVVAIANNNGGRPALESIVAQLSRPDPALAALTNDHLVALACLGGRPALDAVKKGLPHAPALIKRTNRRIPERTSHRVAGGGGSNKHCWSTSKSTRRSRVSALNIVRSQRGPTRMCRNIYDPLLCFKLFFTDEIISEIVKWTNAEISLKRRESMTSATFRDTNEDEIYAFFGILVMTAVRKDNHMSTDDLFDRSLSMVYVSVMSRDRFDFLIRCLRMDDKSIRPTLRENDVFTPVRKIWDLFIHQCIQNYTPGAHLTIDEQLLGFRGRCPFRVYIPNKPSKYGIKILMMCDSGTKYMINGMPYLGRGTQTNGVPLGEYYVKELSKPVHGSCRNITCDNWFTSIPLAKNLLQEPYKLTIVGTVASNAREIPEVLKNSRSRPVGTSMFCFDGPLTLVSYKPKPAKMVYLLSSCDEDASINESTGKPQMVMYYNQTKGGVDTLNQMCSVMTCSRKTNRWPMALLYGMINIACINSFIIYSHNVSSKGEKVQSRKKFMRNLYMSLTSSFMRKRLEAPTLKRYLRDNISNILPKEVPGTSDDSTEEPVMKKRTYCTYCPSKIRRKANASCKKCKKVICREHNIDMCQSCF

T3: PAH3 Left TAL-PBx (synthetic construct)
T3 chain: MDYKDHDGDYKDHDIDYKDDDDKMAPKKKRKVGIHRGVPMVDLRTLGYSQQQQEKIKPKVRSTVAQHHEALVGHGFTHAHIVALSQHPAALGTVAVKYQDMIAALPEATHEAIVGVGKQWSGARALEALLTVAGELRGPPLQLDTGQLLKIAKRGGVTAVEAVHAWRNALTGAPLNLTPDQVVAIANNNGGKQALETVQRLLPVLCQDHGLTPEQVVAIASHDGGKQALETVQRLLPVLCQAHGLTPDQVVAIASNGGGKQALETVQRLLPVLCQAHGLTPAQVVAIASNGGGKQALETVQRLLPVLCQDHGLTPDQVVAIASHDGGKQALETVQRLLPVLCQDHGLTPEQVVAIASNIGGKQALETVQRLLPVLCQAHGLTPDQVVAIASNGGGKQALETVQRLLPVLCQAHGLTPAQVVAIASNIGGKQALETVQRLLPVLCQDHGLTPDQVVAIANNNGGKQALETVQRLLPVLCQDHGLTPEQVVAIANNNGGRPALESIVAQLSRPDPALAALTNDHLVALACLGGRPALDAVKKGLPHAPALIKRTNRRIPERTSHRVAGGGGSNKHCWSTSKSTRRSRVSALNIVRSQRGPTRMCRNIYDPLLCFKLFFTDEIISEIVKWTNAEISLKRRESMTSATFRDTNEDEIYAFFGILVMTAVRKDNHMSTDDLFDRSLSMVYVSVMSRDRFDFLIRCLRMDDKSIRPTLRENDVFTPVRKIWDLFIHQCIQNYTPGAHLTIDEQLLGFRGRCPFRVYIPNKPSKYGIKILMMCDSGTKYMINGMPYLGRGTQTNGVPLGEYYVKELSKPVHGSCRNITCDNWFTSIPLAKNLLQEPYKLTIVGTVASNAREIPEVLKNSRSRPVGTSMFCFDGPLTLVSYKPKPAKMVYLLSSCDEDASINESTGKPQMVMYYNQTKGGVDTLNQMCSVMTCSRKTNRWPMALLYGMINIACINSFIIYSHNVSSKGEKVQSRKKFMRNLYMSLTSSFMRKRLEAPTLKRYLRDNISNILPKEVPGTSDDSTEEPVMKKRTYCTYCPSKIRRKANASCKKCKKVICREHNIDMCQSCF

T4: PAH3 Right TAL-PBx (synthetic construct)
T4 chain: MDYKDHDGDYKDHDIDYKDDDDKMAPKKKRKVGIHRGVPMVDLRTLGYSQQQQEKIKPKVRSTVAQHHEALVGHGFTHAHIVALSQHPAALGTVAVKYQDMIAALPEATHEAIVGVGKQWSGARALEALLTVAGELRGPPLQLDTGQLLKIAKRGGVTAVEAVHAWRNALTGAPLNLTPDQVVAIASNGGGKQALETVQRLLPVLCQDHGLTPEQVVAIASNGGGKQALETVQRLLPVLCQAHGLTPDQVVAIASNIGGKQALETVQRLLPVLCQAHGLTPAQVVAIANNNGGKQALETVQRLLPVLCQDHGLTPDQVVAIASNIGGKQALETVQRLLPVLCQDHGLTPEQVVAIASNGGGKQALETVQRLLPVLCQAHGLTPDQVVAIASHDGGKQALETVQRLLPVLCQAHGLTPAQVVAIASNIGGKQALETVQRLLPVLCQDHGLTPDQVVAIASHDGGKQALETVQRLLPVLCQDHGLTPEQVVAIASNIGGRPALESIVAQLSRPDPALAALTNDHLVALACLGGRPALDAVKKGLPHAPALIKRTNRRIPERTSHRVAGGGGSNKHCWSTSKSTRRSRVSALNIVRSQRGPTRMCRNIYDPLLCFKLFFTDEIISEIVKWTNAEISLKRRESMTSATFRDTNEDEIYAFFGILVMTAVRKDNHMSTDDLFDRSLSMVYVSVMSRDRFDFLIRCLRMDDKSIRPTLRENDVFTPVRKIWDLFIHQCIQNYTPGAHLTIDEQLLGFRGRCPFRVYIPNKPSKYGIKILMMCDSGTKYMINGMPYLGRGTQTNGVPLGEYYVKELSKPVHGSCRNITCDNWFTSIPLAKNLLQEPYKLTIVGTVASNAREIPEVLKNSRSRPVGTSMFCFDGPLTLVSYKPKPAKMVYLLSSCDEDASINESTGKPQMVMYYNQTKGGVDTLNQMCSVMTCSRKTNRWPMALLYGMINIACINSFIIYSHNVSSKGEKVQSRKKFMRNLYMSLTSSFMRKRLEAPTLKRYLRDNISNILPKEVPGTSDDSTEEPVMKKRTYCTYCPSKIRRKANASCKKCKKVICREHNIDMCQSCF


Experiments:
Conditions in all cases: tags: 3xFlag, SV40 NLS
[1] = molecular target: T1, PAH2 Left TAL-PBx; assay: cell_activity; left only
[2] = molecular target: T2, PAH2 Right TAL-PBx; assay: cell_activity; right only
[3] = molecular target: T3, PAH3 Left TAL-PBx; assay: cell_activity; left only
[4] = molecular target: T4, PAH3 Right TAL-PBx; assay: cell_activity; right only

| Binder | activity [1] | activity [2] | activity [3] | activity [4] |
| --- | --- | --- | --- | --- |
| PAH2 target (dsDNA) DNA 1: TTCAGTTTGTTATATATGTGTCTATTAAGTTAGATTGTGAGCTCCTAAAAGA DNA 2: TCTTTTAGGAGCTCACAATCTAACTTAATAGACACATATATAACAAACTGAA | 8.8 % GFP+ | 7 % GFP+ |  |  |
| PAH3 target (dsDNA) DNA 1: TGCTTCATAGGGTAGTTCTAAAGATTAAATCACTTAATGCATGTGATCTAAA DNA 2: TTTAGATCACATGCATTAAGTGATTTAATCTTTAGAACTACCCTATGAAGCA |  |  | 6.8 % GFP+ | 5.7 % GFP+ |

Source: patent US20240392262A1, “TRANSPOSASE AND USES THEREOF” (Poseida Therapeutics, Inc., published 2024)
